# T1: CLL1 on the surface of cells (HL60, KG1, Hela-CLL1) (UniProt Q5QGZ9 1-265, limits assumed)
# T1 construct: whole, on cells; HL60 and KG1 are human cell lines; also called CLEC12A; CD371
# T1 sequence (looked up): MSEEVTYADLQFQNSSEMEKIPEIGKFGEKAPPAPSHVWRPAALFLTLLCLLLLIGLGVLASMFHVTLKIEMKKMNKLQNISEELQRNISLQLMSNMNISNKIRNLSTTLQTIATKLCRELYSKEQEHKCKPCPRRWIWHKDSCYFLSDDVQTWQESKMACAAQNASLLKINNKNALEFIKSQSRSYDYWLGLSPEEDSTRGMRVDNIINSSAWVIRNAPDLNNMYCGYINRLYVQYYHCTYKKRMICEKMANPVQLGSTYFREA
# Biological target: T1, CLL1 on the surface of cells (HL60, …)
# Assay: flow cytometry, serial dilution of VHH-mIgG2a Fc on HL60 cells
row,binding result,Binder
1,binds,"C7 single-domain antibody with the Fc fragment of murine IgG2a at the C-terminal (Fc fusion, not shown: a dimerising Fc or GST; small tags and cut ends, also called C7 VHH-mIgG2aFc) VHH: QVQLVESGGGLVQPGGSLRLSCAASGFTFSSYAMGWARQVPGKEVEWVSGIYSDGSTNYADSVKGRFTISRDNAKNTVYLQMNSLRPEDTAVYHCATDPTVHSDLPVWGQGTLVTVSS"
2,binds,"C3 single-domain antibody with the Fc fragment of murine IgG2a at the C-terminal (Fc fusion, not shown: a dimerising Fc or GST; small tags and cut ends, also called C3 VHH-mIgG2aFc) VHH: QVQLVESGGGLVQPGGSLRLSCAASGFTFSSYAMGWARQVPGKEVEWVSGIYSDGRTYYADSVKGRFTISRDNAKNEVYLQMNSLKPEDTAVYYCAPEPGQGVGDYWGQGTQVTVSS"
3,binds,"C9 single-domain antibody with the Fc fragment of murine IgG2a at the C-terminal (Fc fusion, not shown: a dimerising Fc or GST; small tags and cut ends, also called C9 VHH-mIgG2aFc) VHH: QVQLVESGGGLVQPGGSLRLSCAASGFTFSSYAMGWARQVPGKDVEWVSGIYSDGSTYYADSVKGRFTISRYNAKNTVYLQMNSLKPEDTAVYYCATDPTLENQTTAWGQGTQVTVSS"
4,binds,"C1 single-domain antibody with the Fc fragment of murine IgG2a at the C-terminal (Fc fusion, also called C1 VHH-mIgG2aFc; not shown: Fc fragment of murine IgG2a, added to the C-terminal of the VHH) QVQLVESGGGLVQPGGSLRLSCAASGFTFSSKTMGWARQVPGKAIEWLSGIYSDGSTYYADSVKGRFTISRDNAKNMVYLQMNSLKPEDTAVYYCATEDLTSYGRGTQVTVSS"
5,binds,"C5 single-domain antibody with the Fc fragment of murine IgG2a at the C-terminal (Fc fusion, not shown: a dimerising Fc or GST; small tags and cut ends, also called C5 VHH-mIgG2aFc) VHH: QVQLVESGGGLVQPGGSLRLSCAASGFTFSSYDMGWARQVPGKAVEWVSGIYSDGSTYYADSVKGRFTISRDNAKNTVYLQMNSLKPEDTAVYYCATDPLTSELRSWGQGTQVTVSS"

# Biological target: T1, CLL1 on the surface of cells (HL60, …)
# Assay: flow cytometry, serial dilution of scFv-mIgG2a Fc on HL60 cells (comparator, weaker signal)
row,binding result,Binder
1,binds,"scFv antibody M26 with the Fc fragment of murine IgG2a at the C-terminal (Fc fusion, not shown: a dimerising Fc or GST; small tags and cut ends, also called M26 scFv) scFv: EVQLQQSGPELVKPGASVKMSCKASGYTFTSYFIHWVKQKPGQGLEWIGFINPYNDGSKYNEKFKGKATLTSDKSSSTAYMELSSLTSEDSAVYYCTRDDGYYGYAMDYWGQGTSVTVSSGGGGSGGGGSGGGGSDIQMTQSPSSLSASLGERVSLTCRATQELSGYLSWLQQKPDGTIKRLIYAASTLDSGVPKRFSGNRSGSDYSLTISSLESEDFADYYCLQYAIYPYTFGGGTKLEIK"

# From patent publication EP4714973A1 (Gracell Bioscience (Shanghai) Co., Ltd., dated 2026)
